According to PMC8080463:

What was measured:
PLGF = target: T1, PLGF (Homo sapiens, UniProt P49763 19-141+214-221, internal_change); experiment: SPR
T1 sequence: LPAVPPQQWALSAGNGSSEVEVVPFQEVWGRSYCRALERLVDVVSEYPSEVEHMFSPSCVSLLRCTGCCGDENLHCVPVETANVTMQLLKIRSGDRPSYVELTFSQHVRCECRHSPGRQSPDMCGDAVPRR

Annexin 2 = Annexin 2 (UniProt P07355 2-339); experiment: EMSA
HGF = HGF (UniProt P14210;P14210 32-494;495-728); experiment: SPR
CRP [1] = target: T2, CRP (UniProt P02741 19-224); experiment: EMSA
T2 sequence: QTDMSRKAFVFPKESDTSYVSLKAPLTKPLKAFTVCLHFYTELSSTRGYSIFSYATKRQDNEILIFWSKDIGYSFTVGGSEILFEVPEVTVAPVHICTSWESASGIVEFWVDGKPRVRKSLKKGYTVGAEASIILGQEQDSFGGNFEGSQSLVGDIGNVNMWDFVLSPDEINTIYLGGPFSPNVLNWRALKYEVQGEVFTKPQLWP

TNF-alpha = TNF-alpha (UniProt P01375 77-233); experiment: EMSA
CRP [2] = target: T2, CRP; experiment: SPR

Chain of HGF (P14210 32-494, chain 1 of 2): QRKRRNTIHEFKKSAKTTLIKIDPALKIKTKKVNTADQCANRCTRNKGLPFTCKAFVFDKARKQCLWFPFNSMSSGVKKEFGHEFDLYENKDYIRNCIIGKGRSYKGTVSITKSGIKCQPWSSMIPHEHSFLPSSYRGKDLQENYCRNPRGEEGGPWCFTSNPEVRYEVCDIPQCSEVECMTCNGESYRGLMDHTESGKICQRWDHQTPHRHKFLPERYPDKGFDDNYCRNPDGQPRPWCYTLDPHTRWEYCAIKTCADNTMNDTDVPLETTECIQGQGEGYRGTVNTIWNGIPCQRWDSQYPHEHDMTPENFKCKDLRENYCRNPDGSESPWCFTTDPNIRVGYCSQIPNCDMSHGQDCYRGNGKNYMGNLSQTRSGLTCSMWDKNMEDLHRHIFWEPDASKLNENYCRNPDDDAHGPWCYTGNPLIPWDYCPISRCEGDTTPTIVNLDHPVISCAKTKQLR
Chain of HGF (P14210 495-728, chain 2 of 2): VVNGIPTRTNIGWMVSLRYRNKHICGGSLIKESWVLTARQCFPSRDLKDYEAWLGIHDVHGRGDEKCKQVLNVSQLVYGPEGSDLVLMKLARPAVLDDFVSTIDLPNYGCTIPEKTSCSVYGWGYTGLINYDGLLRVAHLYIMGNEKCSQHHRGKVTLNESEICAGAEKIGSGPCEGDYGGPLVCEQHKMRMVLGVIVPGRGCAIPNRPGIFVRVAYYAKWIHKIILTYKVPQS
Chain of TNF-alpha (P01375 77-233): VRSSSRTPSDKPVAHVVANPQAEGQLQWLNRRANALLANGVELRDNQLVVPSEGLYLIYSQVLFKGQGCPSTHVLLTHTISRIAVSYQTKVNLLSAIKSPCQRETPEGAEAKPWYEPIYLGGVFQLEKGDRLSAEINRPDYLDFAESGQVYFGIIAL
Chain of Annexin 2 (P07355 2-339): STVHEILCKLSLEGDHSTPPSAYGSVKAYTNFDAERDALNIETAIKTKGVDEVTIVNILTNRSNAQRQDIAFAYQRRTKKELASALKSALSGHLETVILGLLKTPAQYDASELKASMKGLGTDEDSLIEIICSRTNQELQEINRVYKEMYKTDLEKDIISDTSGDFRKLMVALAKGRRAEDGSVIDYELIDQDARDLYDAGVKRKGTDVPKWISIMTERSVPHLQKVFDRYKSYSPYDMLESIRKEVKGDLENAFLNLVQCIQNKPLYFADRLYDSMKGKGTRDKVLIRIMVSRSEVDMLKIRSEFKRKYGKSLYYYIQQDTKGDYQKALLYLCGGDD

GGGAGGGAGGGAGGG (structured_DNA) [PLGF-PQS2]
binding result (PLGF): no binding

GGGCGGGTGTCCCGGGTGTCGGG (structured_DNA) [PLGF-PQS4]
binding result (PLGF): no binding

GGGCCGGGAGGGTGCAGGG (structured_DNA) [Annexin2-PQS7]
binding result (Annexin 2): binds

GGACGGGCTGGCGG (ssDNA) [HGF-PQS5]
binding result (HGF): no binding

GGGGACTGTTGTGGGGTGGGGGGAGGGGGG (ssDNA) [CRP-PQS2]
binding result (CRP [1]): binds

GGGCCTCGCGGGCCAGTCGGGCGTCGCGGG (structured_DNA) [PLGF-PQS3]
binding result (PLGF): no binding

GGGAGAGAGGGAGGGAGGTCGTTTGGG (structured_DNA) [TNFa-PQS4]
binding result (TNF-alpha): no binding

GGGTCCGAACAGGGACGATGGGGGTGGG (structured_DNA) [TNFa-PQS3]
binding result (TNF-alpha): no binding

GGACCTGCGGCTCCCTGGGCGG (structured_DNA) [Annexin2-PQS1]
binding result (Annexin 2): binds

GGGCATGGGGACGGGGTTCAGCCTCCAGGG (structured_DNA) [TNFa-PQS2]
binding result (TNF-alpha): no binding

GGGCGCCGAGGGGCAGGCGGGTCCCGGGG (structured_DNA) [PLGF-PQS1]
binding result (PLGF): no binding

GGGATCGTGGAGTTCTGGGTAGATGGGAAGCCCAGGG (ssDNA) [CRP-PQS1]
binding result (CRP [2]): no binding

GGGCTGGCAGGAGTTTGG (ssDNA) [HGF-PQS4]
binding result (HGF): no binding

GGCGCCTGGCGCGTCTGGAATGCGG (structured_DNA) [Annexin2-PQS2]
binding result (Annexin 2): binds

GGGCAGGGCCAGGGGCGCTGGG (structured_DNA) [Annexin2-PQS5]
binding result (Annexin 2): binds

GGAAGGGAGGAGCAAGG (structured_DNA) [HGF-PQS6]
binding result (HGF): no binding

GGGTTTGGGTTTGGGGGTAGGG (structured_DNA) [TNFa-PQS1]
binding result (TNF-alpha): no binding

GGGGAGGCGGGGCGGGGCGGGG (structured_DNA) [Annexin2-PQS6]
binding result (Annexin 2): binds

GGAAAGGAGGGGGCTGG (structured_DNA) [HGF-PQS9]
binding result (HGF): no binding
